Results on three molecules are retold here after patent publication US20230115785, “ANALYTE DETECTION” (University of Leeds, published 2023).

Common to all, as to settings: chain copies: 5 (pentamer, stated)
Data set [1] concerns the target T1, C-reactive protein (CRP, pentamer) (Homo sapiens, UniProt P02741 P02741:19-224).
T1 sequence: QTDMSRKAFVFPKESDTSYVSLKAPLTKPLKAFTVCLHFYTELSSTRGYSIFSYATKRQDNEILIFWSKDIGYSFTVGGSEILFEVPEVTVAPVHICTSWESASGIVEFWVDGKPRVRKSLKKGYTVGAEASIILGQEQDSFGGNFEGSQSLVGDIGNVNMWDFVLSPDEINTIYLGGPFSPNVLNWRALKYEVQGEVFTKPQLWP
Description: SPR; amine-anchored extended aptamer; slower kinetics than aptamer 1; similar carrier sensing results (p217). The method, then:
(§1) Aptamer-protein binding studies were carried out via an ESPRIT SPR instrument from Metrohm Autolab B.V (Utrecht, The Netherlands). For this, the end-modified aptamers attached with an amine group were anchored onto the gold SPR surface functionalized with a self-assembled monolayer (SAM) of C11PEG6COOH via EDC (1-ethyl-3-(3-dimethylaminopropyl) carbodiimide) NHS (N-hydroxysuccinimide) coupling chemistry. The gold SPR surface from XanTec bioanalytics was cleaned by sonication twice in acetone for 10 minutes and then immersed in an ethanolic 1 mM SAM solution containing 5% acetic acid and allowed to stand at room temperature for 48 hours. Following the incubation, the surface was rinsed with 100% ethanol, quickly dried with nitrogen and was mounted on the SPR system. To attach the DNA aptamers to the gold surface, the COOH-terminated SAM surface was activated with 50 mM EDC and 200 mM NHS in 100 mM MES buffer at pH5.5 for around 15 min. The surface was washed with the MES buffer, followed by a 30-minute incubation with 5 μM of DNA aptamer in 10 mM sodium acetate buffer at pH5.5. Any remaining activated COOH sites were quenched by exposing the surface to 100 mM ethanolamine in water for around 10 min. […] The binding was measured as the change in resonance angle.

For data set [2], the target named is T1, C-reactive protein (CRP, pentamer). Description: SPR; amine-anchored extended aptamer; 10 mM TrisAc, 10 mM MgAc, 2 mM CaCl2, 1 mM EDTA; faster kinetics than aptamer 2. As to the method:
as §1
For orientation: Surface plasmon resonance follows binding to a sensor surface in real time, without labels.

Data set [3] has the same target. Description: nanopipette translocation; carrier 9 nM, CRP 90 nM; no single peaks. The method, then: For the translocation experiments the nanopipettes with the working electrode were filled with the translocation buffer (0.1 M KCl with 10 mM TrisAc, 10 mM MgAc, 2 mM CaCl₂) and 1 mM EDTA) containing the DNA origami and analyte where applicable at a final concentration of 500 pM. The Mg is required to maintain the stability of the DNA origami, and the Ca to match the buffer conditions used to select the DNA aptamers employed as binding moieties. The grounded counter electrode was immersed in a 0.1 M KCl solution completing the circuit. […] Measurements were recorded using the Axopatch 700b amplifier, and the data were acquired at a rate of 100 kHz and 20 kHz low pass filtered. […]
To investigate the specificity of our sensing system, and in particular of the carriers to the CRP target, a random DNA sequence was selected to act as a non-specific aptamer and the translocation ion current was measured for carrier concentration of 9 nM and CRP concentration of 90 nM, i.e. the highest concentration reported in FIG. 6. A single distribution of peak amplitudes and dwell times with averages of 69±5 pA and […], respectively, were found, consistent with the values measured with unoccupied carriers.

B1: hCRP aptamer 2 (ssDNA)
DNA: CGAAGGGGATTCGAGGGGTGATTGCGTGCTCCATTTGGTGTTTTTTTTTTTTGCAAGGATAAAAATTT
modifications: 3'-NH2
Consider B1, for which, in data set [1], the binding result is “binds”.

B2: hCRP aptamer 1 (ssDNA)
DNA: AAGCCTTTATTTCAACGGCAGGAAGACAAACACGATGGGGGGGTATGATTTGATGTGGTTGTTGCATGATCGTGGTCTGTGGTGCTGT
modifications: 5'-NH2
For the molecule B2, the binding result in data set [2] was “binds”.

B3: Nonspecific random aptamer (ssDNA)
DNA: CTGAACAAGAAAAATAGCAGAACTTACGAGCCAGGGGAAACAGTAAGGCCTAATTAGGTAAAGGAGTAAGTGCTCGAACGCTTCAGA
modifications: 5'-NH2
Take B3: in data set [3], the binding result is recorded as “no binding”.
